{
  "source": "patent US20260092121A1",
  "about": "(TALEM THERAPEUTICS, published 2026)",
  "binders": {"B1": {"name": "anti-CD3 Fab clone 5-C03 (Fab, V domains shown)", "VH": "QVQLQQSGPGLVKPSQTLSLTCAISGDSVSSNSAAWNWIRQSPSRGLEWLGRTYYRSKWYNDYAVSVKSRITINPDTSKNQFSLQLNSVTPEDTAVYYCATWGMDVWGQGTTVTVSS", "VL": "not shown", "notes": "Fab, HEK293"}, "B2": {"name": "anti-CD3 Fab clone 6-C04 (Fab, V domains shown)", "VH": "B1 VH with Q85H, T112M", "VL": "not shown", "notes": "Fab, HEK293"}, "B3": {"name": "anti-CD3 Fab clone 2-C02 (Fab, V domains shown)", "VH": "B1 VH with Q85H", "VL": "not shown", "notes": "Fab, HEK293"}, "B4": {"name": "anti-CD3 Fab clone 7-G01 (Fab, V domains shown)", "VH": "QVQLVQSGPEVKKPGASVNISCKTSGYTFRNYYVHWVRQAPGQGFEYMGRVNPNSGNARYAQKFQGRVAMTSDTSTSTAYMELSSLRSEDTAVYYCAREPPATVAYYYGMDVWGQGTTVTVSS", "VL": "NFMLTQPHSVSESPGKTVTISCTGSSGSIASNYVHWYQQRPGSAPTTVIYEDNQRPSGVPDRFSGSIDSSSNSASLTISGLKTEDEADYYCRSYDSSNRNWVFGGGTKLTVL", "notes": "Fab, HEK293"}, "B5": {"name": "anti-CD3 Fab clone 1-C12 (Fab, V domains shown)", "VH": "QVQLQQSGPGLVKPSQTLSLTCAISGDSVSSNSAAWNWIRQSPSRGLEWLGRTYYRSKWYNDYAVSVKSRITINPDTSKNQFSLQLNSVTPEDTAVYYCARGITGTGYGMDVWGQGTLVTVSS", "VL": "QSVLTQPPSASGTPGQRVTISCSGSSSNIGRNHVYWYQQLPGTAPKLLIYNNDQRPSGVPDRFSGSKSGTSGSLTISGLQAEDEADYYCAAWDDSLSSGVFGGGTKVTVL", "notes": "Fab, HEK293"}, "B6": {"name": "anti-CD3 Fab clone 4-A01 (Fab, V domains shown)", "VH": "QVQLVQSEGGLVQPGGSLRLSCAASGFSFGSSAMSWVRQAPGRGLEWVSGISHSGSTTYYADSVKGRFTISRDNSKNTLYLQMNSLRVEDTAVYYCAKIGAYGYYFHYWGQGTLVTVSS", "VL": "NFMLTQPHSVSESPGKTVTISCTGSGGNIGNNYVQWYQQRPDSPPSTVIYDDSQRPSGVPDRFSGSIDRSSNSASLTISGLRTEDEADYYCQSSDSGRVVFGGGTKLTV", "notes": "Fab, HEK293"}, "B7": {"name": "anti-CD3 Fab clone 4-G03 (Fab, V domains shown)", "VH": "B6 VH with V5L, E8A, F27Y, V88A", "VL": "NFMLTQPHSVSESPGKTVTISCTGNGGNIASNYVQWYQHRPDSAPIAVIYDDSQRPSGIPDRFSGSIDRSSNSASLTISGLRPEDEADYYCQSSDNANVVFGGGTKLTVL", "notes": "Fab, HEK293"}, "B8": {"name": "anti-CD3 Fab clone 7-E01 (Fab, V domains shown)", "VH": "B6 VH with V5Q, E8G", "VL": "NFMLTQPHSVSESPGRTVTISCTRSSGSIASNYVQWYQQRPGSAPTTVIYEDNQRLSGVPDRFSGSIDRSSNSASLTISGLKTEDEADYYCQSSDDSNHLVFGGGTKLTVL", "notes": "Fab, HEK293"}, "B9": {"name": "anti-CD3 Fab clone 7-A11 (Fab, V domains shown)", "VH": "EVQLVESGGGVVQPGRSLRLSCAASGFTFSSYGIHWVRQAPGKGLEWVSAISGSGGSTYYADSVKGRFTISRDNAKNSLYLQMNSLRDEDTAVYYCARERLIGMDVWGQGTTVTVSS", "VL": "B8 VL with S11A, R16K, L56P, R69S, S94Y, D96S, S97G, H99P, L100R", "notes": "Fab, HEK293"}, "B10": {"name": "anti-CD3 Fab clone 3-A05 (Fab, V domains shown)", "VH": "QVQLLQSAAEVKKPGASVKVPCKASGYTFTGHYMHWVRQAPGQGLEWMGIINPRGGSTSYAQKFQGRVTMTRDTSTSTVYMELSSLRSEDTAVYYCARESIAAAGPYFDYWGQGTLVTVSS", "VL": "QSALTQPHSVSESPGKTVTISCTRTSGRIGSNYVQWYQQRPGSAPTVVIYEDNQRPSGVPDRFSGSIDSSTNSASLTISRLKTEDEADYYCQSYDSGVVVVFGGGTKLTV", "notes": "Fab, HEK293; not the anti-TrkB clone 3A05"}, "B11": {"name": "anti-CD3 Fab clone 7-C11 (Fab, V domains shown)", "VH": "EVQLVESGGGLVQPGGSLRLSCAASGFTSNTYAMSWVRQAPGKGLEWVSTISGSGSSTNYADSVKGRFTISRDSSKNTLYLQMNSLRAEDTAVYYCARIERYSYGIDYWGQGTLVTVSS", "VL": "NFMLTQPHSVSESPGKTVTISCTRNTGGIAANYVQWYHQRPGSAPTTVIYEDKQRPSGVPGRFSGSIDGSSNSASLTISGLQAEDEGDYYCHSSDNNNQVFGGGTKLTVL", "notes": "Fab, HEK293"}, "B12": {"name": "anti-CD3 Fab clone 3-A03 (Fab, V domains shown)", "VH": "EVQLVESGGGVVQPGRSLRLSCAASGFTFSSYAMHWVRQAPGKGLEWVSAISGSGGSTYYADSVKGRFTISRDNSKNTLYLQMNSLRAEDTAVYYCARDAHDYWGQGTLVTVSS", "VL": "QSVLTQPPSVSAAPGQKATISCSGGSSNLGNNYVSWYQQLPGTAPKLLIYDNNKRPSGIPDRFSGSKSGTSAALAITGLQTGDEADYYCGTWDSSLSAGVFGGGTKLTVL", "notes": "Fab, HEK293"}, "B13": {"name": "anti-CD3 Fab clone 1-D03 (Fab, V domains shown)", "VH": "EVQLVQSGGGLVKPGRSLRLSCTASGFTFGDYAMSWFRQAPGKGLEWVGFIRSKAYGGTTEYAASVKGRFTISRDDSKSIAYLQMNSLKTEDTAVYYCTRVSDIYGMDVWGQGTTVTVSS", "VL": "B12 VL with A18V, G25S, L29I, A73T, A75G, G90A, S94D, S97K", "notes": "Fab, HEK293"}, "B14": {"name": "anti-CD3 Fab clone 3-B04 (Fab, V domains shown)", "VH": "QVQLVQSGGGLVQPGRSLRLSCAASGFTFDDFAMHWVRQAPGKGLEWVSGITWNSAATIYADSVKGRFTISRDNAKNSLYLQMNSLRPEDTAVYYCARDRGGPKDPFDIWGQGTMVTVSS", "VL": "B12 VL with Q16K, A18V, L29I, N31K, A73T, A75G, G99V", "notes": "Fab, HEK293; not the anti-TrkB clone 3B04"}, "B15": {"name": "anti-CD3 Fab clone 3-B06 (Fab, V domains shown)", "VH": "QVQLQQSGAEVKKPGASLKVSCKASGYTFTRYGFSWVRQAPGQGLEWMGWISAYNGNTNYAQKFQGRVTMTTDTSTSTAYMEMRSLRSDDTAVYYCARDRGYCSGGSCPGIDAFDIWGQGTMVTVSS", "VL": "SYVLTQPPSVSVAPGQTAKITCGGDNIENKYVHWYQQKPGQAPVVVVYDDSDRPSGIPDRFSGSNSGNTATLTITRVEAGDEADYYCQVWDSSSDRVVFGGGTKLTVL", "notes": "Fab, HEK293; not the anti-TrkB clone 3B06"}, "B16": {"name": "anti-CD3 Fab clone 8-B12 (Fab, V domains shown)", "VH": "HVQLVQSGGGSAQHGGSLRLSCAASGFTFNNSYMNWVRQAPGKRLEWISTISRGGNSVYYADSVKGRFTVSRDNTKNLTFLQMDSLRDEDTAVYYCAKGGDYLYWGQGTLVTVSS", "VL": "NFMLTQPHSVSESPGKTVTLSCTRSSGSIASKYVQWYQQRPGSAPTIVIFDDDRRPSGVPDRFSGSIDRSSNSASLTIFGMKTEDEADYYCQSYDSSNWVFGGGTKLTVL", "notes": "Fab, HEK293"}, "B17": {"name": "anti-CD3 Fab clone 3-C04 (Fab, V domains shown)", "VH": "EVQLVESGGGLVQPGGSLRLSCAASGFTFNNFYMNWVRQAPGKGLEWISTISRGGNSVYYADSVKGRFTVSRDNAKNSLFLQMDSLRDEDTAVYYCVRGGDFLYWGQGTLVTVSS", "VL": "NFMLTQPHSVSESPGKTVTISCTRSTGSIAGNYVQWYQQRPGSSPTTVILEDKQRPSGVPDRFSGSIDTSSNSATLTISGLKTEDEADYYCQSYDSGNVIFGGGTKLTVL", "notes": "Fab, HEK293"}, "B18": {"name": "anti-CD3 Fab clone 7-B02 (Fab, V domains shown)", "VH": "QVQLVQSGGGLVQPGGSLRLSCAASGFTFSRYSMSWVRQAPGKGLEWVSSISGGGGSTYYADSVKGRFTISRDNSDGSVYLKMNSLAAGDTAAYYCVRGGWYRTPFEFWGRGTLVTVSS", "VL": "SYVLTQPPSVSASPGQTASITCSGHKLGDKYTSWYQQKPGQSPVLVIYQDNKRPSGIPERFSGSNSGNTATLTISGTQAMDEADYYCQAWDSSTNYVFGTGTKLTVL", "notes": "Fab, HEK293"}, "B19": {"name": "anti-CD3 Fab clone 5-A05 (Fab, V domains shown)", "VH": "QVQLVQSGAEGKKPGSSVKVSCKASGGTFSSYAISWVRQAPGQGLEWMGGIIPIFGTANYAQKFQGRVTITADESTSTAYMELRSLRSDDTAVYYCARDAVVVADSGSMDVWGQGTTVTVSS", "VL": "not shown", "notes": "Fab, HEK293"}, "B20": {"name": "anti-CD3 Fab clone 1-H01 (Fab, V domains shown)", "VH": "B19 VH with G11V, R84S, D89E", "VL": "not shown", "notes": "Fab, HEK293"}, "B21": {"name": "anti-CD3 Fab clone 3-B05 (Fab, V domains shown)", "VH": "QVQLLQSAGGVVQPGRSLRLSCAASGFTFSTYAVHWVRQAPGKGLEWVAAISYDGAGKYYGDSVRGRFTISRDDSKNTVYLQMNSLRAEDTAVYYCAGEHYTLTDEEFDFWGQGTLVTVSS", "VL": "QSVLTQPPSVSAAPGQKVTISCSGSASNIGNNYVSWYQQLPGTAPKLLIYDNNQRPSGIPDRFSGSKSGTSATLGITGLQTGDEADYYCGTWDTSLRGVVFGGGTKVTVL", "notes": "Fab, HEK293"}, "B22": {"name": "anti-CD3 Fab clone 1-G11 (Fab, V domains shown)", "VH": "QVQLVQSGAEVKKPGASVKVSCKASGYTFTSYGISWVRQAPGQGLEWMGWISAYNGNTNYAQKLQGRVTMTTDTPTSTAYMEVRSLRSDDTAVYYCAREVNYGLDVWGQGTLVTVSS", "VL": "QPVLTQPPSASGTPGQRVTISCSGSSSNIGSKYVYWYQQLPGTAPKLLIYRNNQRPSGVPDRFSGSKSGTSASLVISGLRSEDEADYHCAAWDDSLSGRVFGGGTKLTVL", "notes": "Fab, HEK293"}, "B23": {"name": "anti-CD3 Fab clone 4-G04 (Fab, V domains shown)", "VH": "QVNLRESGGGVVQPGGSLRLSCAASGFTFRRYGMNWIRQAPGKGLEWVSSISSSSSYIYYADSVKGRFTISRDNAKNSLYLQMNSLRAEDTAMYYCVRDGRFINGLDVWGQGTLVTVSS", "VL": "NFMLTQPHSVSESPGRTVTISCTRSSGSIASNYVQWYQQRPGSSPTTVIYDDKKRPSGVPDRFSGSIDSSTNSASLTISGLKTEDEADYYCQSYDSSNHWVFGGGTKVTVL", "notes": "Fab, HEK293"}, "B24": {"name": "anti-CD3 Fab clone 3-A06 (Fab, V domains shown)", "VH": "QVTLRESGGGLVKPGGSLRLSCSASGFTFRGFYMAWIRQAPGKGLEWVAYISSSGSAVYHADSVKGRFTVSRDNAKNLMYLEMNSLRADDTAVYYCARDGGTGGFDYWGQGTLVTVSS", "VL": "NFMLTQPHSVSESPGKTVAISCSRSSGSVASNYVQWYQQRPGNVPTTIIYQDNQRPSGVPDRFSGSIDKSSNSASLTISGLKTEDEADYYCQSYDGRRLIFGGGTKLTVL", "notes": "Fab, HEK293; not the anti-TrkB clone 3A06"}},
  "note": "Positions count from the first letter of the chain named.",
  "data": [
    {"target": "T1, biotinylated His-Avi-tagged human CD3δ/ε heterodimer (human, UniProt P07766 23-126; P04234 22-105, biotinylated)", "T1 construct": "bought, expressed from HEK293; also called CD30/8; Biotin-CD3", "T1 sequence (P07766 23-126, stated change not applied, chain 1 of 2)": "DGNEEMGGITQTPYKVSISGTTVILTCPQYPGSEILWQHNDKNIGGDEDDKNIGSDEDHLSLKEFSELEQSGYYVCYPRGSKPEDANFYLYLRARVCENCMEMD", "T1 sequence (P04234 22-105, stated change not applied, chain 2 of 2)": "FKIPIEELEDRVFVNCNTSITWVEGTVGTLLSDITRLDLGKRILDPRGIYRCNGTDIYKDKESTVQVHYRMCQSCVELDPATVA", "assay": "ELISA", "units": {"EC50": "µg/mL"}, "values": [
      {"binder": "B1", "EC50": 23.9},
      {"binder": "B2", "EC50": 47.7},
      {"binder": "B3", "EC50": 23.9},
      {"binder": "B4", "EC50": 6.3},
      {"binder": "B5", "EC50": 19.2},
      {"binder": "B6", "EC50": 19.5},
      {"binder": "B7", "EC50": 16.8},
      {"binder": "B8", "EC50": 7.9},
      {"binder": "B9", "EC50": 34.9},
      {"binder": "B10", "EC50": 11.4},
      {"binder": "B11", "EC50": 52.3},
      {"binder": "B12", "EC50": 5.2},
      {"binder": "B13", "EC50": 174},
      {"binder": "B14", "EC50": 10.9},
      {"binder": "B15", "EC50": 16.9},
      {"binder": "B16", "EC50": 38.2},
      {"binder": "B17", "EC50": 5.9},
      {"binder": "B18", "EC50": 12.1},
      {"binder": "B19", "EC50": 4.3},
      {"binder": "B20", "EC50": 6.8},
      {"binder": "B21", "EC50": 7.2},
      {"binder": "B22", "EC50": 7.9},
      {"binder": "B23", "EC50": 73.8},
      {"binder": "B24", "EC50": 3.6}
    ]}
  ]
}
